In patent US20130012436A1 (Bristol-Myers Squibb, published 2013):
Changes are numbered by the printed parent chain. One block for each binder: values may come before it.

Key:
human IL-23 [1] = target: T1, human IL-23 (human, UniProt Q9NPF7 20-189; P29460 23-328); test: cell-based or functional assay
T1 sequence (looked up) 1: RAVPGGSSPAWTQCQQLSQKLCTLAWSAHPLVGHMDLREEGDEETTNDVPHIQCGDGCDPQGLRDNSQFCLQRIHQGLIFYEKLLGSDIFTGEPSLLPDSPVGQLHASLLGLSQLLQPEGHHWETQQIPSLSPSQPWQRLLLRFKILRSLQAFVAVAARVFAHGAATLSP
T1 sequence (looked up) 2: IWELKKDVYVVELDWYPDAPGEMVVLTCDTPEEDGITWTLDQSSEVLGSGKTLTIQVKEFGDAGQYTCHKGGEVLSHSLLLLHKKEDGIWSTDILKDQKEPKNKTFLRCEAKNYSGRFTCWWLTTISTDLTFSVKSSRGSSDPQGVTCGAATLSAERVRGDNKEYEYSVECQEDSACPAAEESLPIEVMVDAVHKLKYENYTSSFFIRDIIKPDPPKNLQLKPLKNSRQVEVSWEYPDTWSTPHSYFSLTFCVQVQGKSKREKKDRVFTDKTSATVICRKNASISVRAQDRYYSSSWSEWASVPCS

human IL-23 [2] = target: T1, human IL-23; test: SPR, Adnectin captured by anti-His mAb, IL-23 injected
Description: All surface plasmon experiments were conducted in HBS-EP (10 mM Hepes 150 mM NaCl 3 mM EDTA 0.05% Surfactant P20) at 25° C. IL-23 was injected over anti-His mAb captured Adnectins for 2 minutes followed by a 10 minute dissociation phase. Evaluation of the binding specificity was completed using Biacore T100 evaluation software. Additional detailed methods are described in Example 4.

human IL-23 [3] = target: T1, human IL-23; test: cell-based or functional assay; remark: listed apart in the source

Kit 225 pSTAT3 IC50 (nM) (human IL-23 [1]): 3 nM | Kd (human IL-23 [2]): 2.2 nM | koff (human IL-23 [2]): 0.000285 s⁻¹ | kon (human IL-23 [2]): 132000 M⁻¹ s⁻¹
B1: 1572F05 (designed binder)
chain: MGVSDVPRDLEVVAATPTSLLISWGHYPLHIRYYRITYGETGGNSPVQEFTVPRQKYTATISGLKPGVDYTITVYAVTYYNEADYSQIPISINYRTEIDKPSQHHHHHH
notes: captured by anti-His mAb

Kit 225 pSTAT3 IC50 (nM) (human IL-23 [1]): 4 nM | Kd (human IL-23 [2]): 2.8 nM | koff (human IL-23 [2]): 0.000381 s⁻¹ | kon (human IL-23 [2]): 134000 M⁻¹ s⁻¹
B2: 1486B05 (designed binder)
chain: B1 chain with L29M, I31V, R54S, Q55R, K56I
notes: captured by anti-His mAb

Kit 225 pSTAT3 IC50 (nM) (human IL-23 [1]): 0.3 nM | Kd (human IL-23 [2]): 2.1 nM | koff (human IL-23 [2]): 0.000408 s⁻¹ | kon (human IL-23 [2]): 198000 M⁻¹ s⁻¹
B3: 1491A05 (designed binder)
chain: B1 chain with I31V, R54S, K56V, N81A, E82Q, A83E, D84N, S86K, Q87E
notes: captured by anti-His mAb

Kit 225 pSTAT3 IC50 (nM) (human IL-23 [1]): 0.1 nM | kon (human IL-23 [2]): 268000 M⁻¹ s⁻¹
B4: 1571F10 (designed binder)
chain: B1 chain with R54S, Q55R, K56Y, Y57H, N81E, E82Q, A83V, D84E, S86R, Q87E
notes: captured by anti-His mAb

Kit 225 pSTAT3 IC50 (nM) (human IL-23 [1]): 2 nM | kon (human IL-23 [2]): 59600 M⁻¹ s⁻¹
B5: 1487H04 (designed binder)
chain: B1 chain with L29M, I31V, R54A, Q55R, K56Q, N81Q, A83Y, D84E, S86R, Q87Y
notes: captured by anti-His mAb

Kit 225 pSTAT3 IC50 (nM) (human IL-23 [1]): 0.8 nM | kon (human IL-23 [2]): 65300 M⁻¹ s⁻¹
B6: 1572B10 (designed binder)
chain: B1 chain with L29M, I31V, R54V, Q55P, K56R, Y57H
notes: captured by anti-His mAb

Kit 225 pSTAT3 IC50 (nM) (human IL-23 [1]): 3.3 nM | Kd (human IL-23 [2]): 3.3 nM | koff (human IL-23 [2]): 0.000446 s⁻¹ | kon (human IL-23 [2]): 134000 M⁻¹ s⁻¹
B7: 1437G04 (designed binder)
chain: B1 chain with I31V, R54Y, Q55Y, K56H
notes: captured by anti-His mAb

Kit 225 pSTAT3 IC50 (nM) (human IL-23 [1]): 5.6 nM | Kd (human IL-23 [2]): 4.5 nM | koff (human IL-23 [2]): 0.000426 s⁻¹ | kon (human IL-23 [2]): 95600 M⁻¹ s⁻¹
B8: 1490C07 (designed binder)
chain: B1 chain with I31V, R54S, Q55N, K56R
notes: captured by anti-His mAb

Kit 225 pSTAT3 IC50 (nM) (human IL-23 [1]): 0.01 nM | Kd (human IL-23 [2]): 0.61 nM | koff (human IL-23 [2]): 0.00023 s⁻¹ | kon (human IL-23 [2]): 375000 M⁻¹ s⁻¹
B9: 1572H05 (designed binder)
chain: B1 chain with Q55S, N81E, E82Q, A83V, D84E, S86R, Q87E
notes: captured by anti-His mAb

Kit 225 pSTAT3 IC50 (nM) (human IL-23 [1]): 3 nM | Kd (human IL-23 [2]): 3.1 nM | koff (human IL-23 [2]): 0.000316 s⁻¹ | kon (human IL-23 [2]): 103000 M⁻¹ s⁻¹
B10: 1487G03 (designed binder)
chain: B1 chain with I31V, R54A, Q55H, K56R
notes: captured by anti-His mAb

Kit 225 pSTAT3 IC50 (nM) (human IL-23 [1]): 31.9 nM | Kd (human IL-23 [2]): 3.4 nM | koff (human IL-23 [2]): 0.000379 s⁻¹ | kon (human IL-23 [2]): 112000 M⁻¹ s⁻¹
B11: 1486C04 (designed binder)
chain: B1 chain with L29M, I31V, R54P, Q55H, K56R
notes: captured by anti-His mAb

Kit 225 pSTAT3 IC50 (nM) (human IL-23 [1]): 4 nM | Kd (human IL-23 [2]): 2.9 nM | koff (human IL-23 [2]): 0.000344 s⁻¹ | kon (human IL-23 [2]): 120000 M⁻¹ s⁻¹
B12: 1486D05 (designed binder)
chain: B1 chain with I31V, R54H, K56R
notes: captured by anti-His mAb

Kit 225 pSTAT3 IC50 (nM) (human IL-23 [1]): 1.5 nM | Kd (human IL-23 [2]): 3.3 nM | koff (human IL-23 [2]): 0.000212 s⁻¹ | kon (human IL-23 [2]): 65200 M⁻¹ s⁻¹
B13: 1550H05 (designed binder)
chain: B1 chain with I31V, K56I
notes: captured by anti-His mAb

Kit 225 pSTAT3 IC50 (nM) (human IL-23 [1]): 0.4 nM | IL-17 EC50 (human IL-23 [3]): 1.5 nM | IL-22 EC50 (human IL-23 [3]): 2.1 nM | PBMNC pSTAT3 IC50 (nM) (human IL-23 [3]): 1.15 nM | Kd (human IL-23 [2]): 2.1 nM | koff (human IL-23 [2]): 0.000116 s⁻¹ | kon (human IL-23 [2]): 55400 M⁻¹ s⁻¹
B14: 1550 E06 (designed binder)
chain: MGVSDVPRDLEVVAATPTSLLISWGHYPMHVRYYRITYGETGGNSPVQEFTVPPPRHTATISGLKPGVDYTITVYAVTYYAQENYKEIPISINYRTEIDKPSQHHHHHH
notes: captured by anti-His mAb

Kit 225 pSTAT3 IC50 (nM) (human IL-23 [1]): 0.3 nM | IL-17 EC50 (human IL-23 [3]): 1.4 nM | IL-22 EC50 (human IL-23 [3]): 1.7 nM | PBMNC pSTAT3 IC50 (nM) (human IL-23 [3]): 0.09 nM | kon (human IL-23 [2]): 153000 M⁻¹ s⁻¹
B15: 1490B03 (designed binder)
chain: B1 chain with I31V, R54S, Q55R, N81K, D84N, S86R, Q87E
notes: captured by anti-His mAb

Kit 225 pSTAT3 IC50 (nM) (human IL-23 [1]): 2.3 nM | kon (human IL-23 [2]): 93500 M⁻¹ s⁻¹
B16: 1490H06 (designed binder)
chain: B1 chain
notes: captured by anti-His mAb

Kit 225 pSTAT3 IC50 (nM) (human IL-23 [1]): 20.2 nM | Kd (human IL-23 [2]): 5.7 nM | koff (human IL-23 [2]): 0.00046 s⁻¹ | kon (human IL-23 [2]): 80600 M⁻¹ s⁻¹
B17: 1437A09 (designed binder)
chain: B1 chain with L29M, I31V, R54S, Q55K, K56Q, Y57H
notes: captured by anti-His mAb

Kit 225 pSTAT3 IC50 (nM) (human IL-23 [1]): 0.6 nM | kon (human IL-23 [2]): 163000 M⁻¹ s⁻¹
B18: 1490A07 (designed binder)
chain: B14 chain with M29L, V31I, P54H, P55A, R56K, H57Y
notes: captured by anti-His mAb
